Measured values: IntAct's records for PubMed 17024177

How the values were obtained:
sp1_human SP1 = sp1_human SP1 (UniProt P08047)
pdk1_human PDK1 = pdk1_human PDK1 (UniProt Q15118)
pdk1_human PDK1, sequence (Q15118 whole entry, looked up): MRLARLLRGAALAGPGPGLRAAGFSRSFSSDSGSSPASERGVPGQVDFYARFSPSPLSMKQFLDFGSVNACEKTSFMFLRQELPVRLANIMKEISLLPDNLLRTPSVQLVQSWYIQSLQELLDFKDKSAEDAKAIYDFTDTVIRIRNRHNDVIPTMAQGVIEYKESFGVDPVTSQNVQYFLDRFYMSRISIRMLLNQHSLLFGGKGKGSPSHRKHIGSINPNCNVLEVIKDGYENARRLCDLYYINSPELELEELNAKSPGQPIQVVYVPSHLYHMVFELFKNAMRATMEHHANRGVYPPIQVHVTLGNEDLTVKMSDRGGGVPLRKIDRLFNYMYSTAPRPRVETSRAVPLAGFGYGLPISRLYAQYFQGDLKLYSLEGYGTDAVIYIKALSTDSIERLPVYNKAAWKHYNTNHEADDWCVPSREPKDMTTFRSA

sp1_human SP1, sequence (P08047 whole entry): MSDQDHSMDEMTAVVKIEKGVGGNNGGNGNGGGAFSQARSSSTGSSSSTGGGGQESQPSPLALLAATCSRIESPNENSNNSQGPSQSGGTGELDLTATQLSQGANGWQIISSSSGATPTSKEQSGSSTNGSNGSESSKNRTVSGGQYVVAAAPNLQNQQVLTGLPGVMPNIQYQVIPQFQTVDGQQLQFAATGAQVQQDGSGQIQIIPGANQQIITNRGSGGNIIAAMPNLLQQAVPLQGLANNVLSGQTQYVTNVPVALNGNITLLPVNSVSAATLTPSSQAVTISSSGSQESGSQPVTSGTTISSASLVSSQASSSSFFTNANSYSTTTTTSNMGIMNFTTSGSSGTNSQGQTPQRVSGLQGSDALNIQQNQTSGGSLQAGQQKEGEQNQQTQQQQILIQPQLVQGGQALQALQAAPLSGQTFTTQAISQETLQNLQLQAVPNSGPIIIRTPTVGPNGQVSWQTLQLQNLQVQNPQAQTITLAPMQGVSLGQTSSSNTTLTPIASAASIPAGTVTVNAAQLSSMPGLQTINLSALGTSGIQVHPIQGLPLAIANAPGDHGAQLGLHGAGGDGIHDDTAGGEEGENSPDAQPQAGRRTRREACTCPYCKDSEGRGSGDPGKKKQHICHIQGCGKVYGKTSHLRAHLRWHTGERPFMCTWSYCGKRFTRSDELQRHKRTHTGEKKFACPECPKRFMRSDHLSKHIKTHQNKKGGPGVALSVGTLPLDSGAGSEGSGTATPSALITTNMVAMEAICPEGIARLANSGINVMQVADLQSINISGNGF
Endothelial PAS domain-containing protein 1 (Homo sapiens), Q99814 T324V, sequence (Q99814 whole entry T324V, the tested form may be a part): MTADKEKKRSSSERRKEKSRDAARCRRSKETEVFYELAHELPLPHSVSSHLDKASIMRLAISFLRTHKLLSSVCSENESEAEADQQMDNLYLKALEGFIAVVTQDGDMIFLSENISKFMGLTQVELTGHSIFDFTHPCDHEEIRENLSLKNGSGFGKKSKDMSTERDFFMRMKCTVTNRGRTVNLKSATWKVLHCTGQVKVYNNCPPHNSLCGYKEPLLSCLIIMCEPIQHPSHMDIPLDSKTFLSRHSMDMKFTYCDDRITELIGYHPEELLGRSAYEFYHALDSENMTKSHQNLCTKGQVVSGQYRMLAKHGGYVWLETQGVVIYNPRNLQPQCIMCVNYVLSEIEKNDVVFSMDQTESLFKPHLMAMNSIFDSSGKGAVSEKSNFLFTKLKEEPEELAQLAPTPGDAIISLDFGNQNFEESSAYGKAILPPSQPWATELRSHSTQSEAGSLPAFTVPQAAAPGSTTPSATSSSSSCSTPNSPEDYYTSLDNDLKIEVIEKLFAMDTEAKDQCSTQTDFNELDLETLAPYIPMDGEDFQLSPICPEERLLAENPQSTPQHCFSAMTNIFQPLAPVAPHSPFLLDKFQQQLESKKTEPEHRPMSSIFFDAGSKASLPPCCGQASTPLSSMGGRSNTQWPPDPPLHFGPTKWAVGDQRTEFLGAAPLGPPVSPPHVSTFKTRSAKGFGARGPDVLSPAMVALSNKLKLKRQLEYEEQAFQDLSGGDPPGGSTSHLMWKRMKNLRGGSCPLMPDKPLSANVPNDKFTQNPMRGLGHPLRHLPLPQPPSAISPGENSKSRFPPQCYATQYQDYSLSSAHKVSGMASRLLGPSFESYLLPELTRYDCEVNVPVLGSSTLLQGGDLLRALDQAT
Endothelial PAS domain-containing protein 1 (Homo sapiens), Q99814 P329T, sequence (Q99814 whole entry P329T, the tested form may be a part): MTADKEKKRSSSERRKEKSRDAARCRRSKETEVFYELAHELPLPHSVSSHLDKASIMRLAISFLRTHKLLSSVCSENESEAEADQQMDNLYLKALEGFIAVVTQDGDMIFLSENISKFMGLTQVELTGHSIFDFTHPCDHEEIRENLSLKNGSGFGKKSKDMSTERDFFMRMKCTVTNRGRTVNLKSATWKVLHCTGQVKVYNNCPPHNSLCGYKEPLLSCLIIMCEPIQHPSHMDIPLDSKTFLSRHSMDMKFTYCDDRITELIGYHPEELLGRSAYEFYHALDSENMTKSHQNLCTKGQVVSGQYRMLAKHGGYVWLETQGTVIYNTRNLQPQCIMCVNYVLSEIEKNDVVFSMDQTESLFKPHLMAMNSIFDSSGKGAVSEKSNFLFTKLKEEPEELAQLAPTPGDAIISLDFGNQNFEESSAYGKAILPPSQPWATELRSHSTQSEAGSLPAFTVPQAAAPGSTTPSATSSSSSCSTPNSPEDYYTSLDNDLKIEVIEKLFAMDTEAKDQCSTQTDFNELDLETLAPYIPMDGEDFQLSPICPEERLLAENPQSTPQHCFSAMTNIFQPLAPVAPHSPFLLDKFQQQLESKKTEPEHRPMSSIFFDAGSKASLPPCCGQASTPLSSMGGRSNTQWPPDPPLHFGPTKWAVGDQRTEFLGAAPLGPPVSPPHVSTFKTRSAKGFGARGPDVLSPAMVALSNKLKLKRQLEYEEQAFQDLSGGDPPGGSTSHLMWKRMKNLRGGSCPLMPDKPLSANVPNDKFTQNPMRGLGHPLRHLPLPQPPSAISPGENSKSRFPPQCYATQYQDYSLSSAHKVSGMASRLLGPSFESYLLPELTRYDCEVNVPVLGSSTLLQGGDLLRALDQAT

effect of a mutation on the interaction (sp1_human SP1)	effect of a mutation on the interaction (pdk1_human PDK1)	Substance
increasing interaction		Endothelial PAS domain-containing protein 1 (Homo sapiens), Q99814 P329T
	disrupting interaction	Endothelial PAS domain-containing protein 1 (Homo sapiens), Q99814 T324V
